In assay [1] the target is T1, human IL-4 (human, UniProt P05112 25-153).
T1 sequence (looked up): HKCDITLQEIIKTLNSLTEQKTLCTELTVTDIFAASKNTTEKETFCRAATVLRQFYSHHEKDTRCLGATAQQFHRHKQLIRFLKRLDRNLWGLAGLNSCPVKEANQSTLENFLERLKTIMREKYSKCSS
The assay is described as follows: cell-based or functional assay.

For assay [2], the target named is T1, human IL-4. The assay is described as follows: cell-based or functional assay. The source holds these as a separate data set.
Assay [3] has as its target T2, IL-33 mm2 (human, UniProt O95760 112-270, limits assumed).
T2 sequence (looked up): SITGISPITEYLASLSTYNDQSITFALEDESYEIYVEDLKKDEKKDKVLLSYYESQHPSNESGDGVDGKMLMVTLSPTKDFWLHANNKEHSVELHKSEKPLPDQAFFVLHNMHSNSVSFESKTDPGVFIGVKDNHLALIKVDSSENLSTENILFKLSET
Nature of the assay: cell-based or functional assay.

Assay [4] deals with T3, recombinant human IL-33 (human, UniProt O95760 112-270, limits assumed).
T3 sequence (looked up): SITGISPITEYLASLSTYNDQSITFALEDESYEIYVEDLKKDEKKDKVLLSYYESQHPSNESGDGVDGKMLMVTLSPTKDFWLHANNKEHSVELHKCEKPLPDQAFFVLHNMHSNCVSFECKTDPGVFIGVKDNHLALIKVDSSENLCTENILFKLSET
The assay is described as follows: cell-based or functional assay.

Assay [5] addresses T4, recombinant human IL-4 (human, UniProt P05112 25-153).
T4 sequence (looked up): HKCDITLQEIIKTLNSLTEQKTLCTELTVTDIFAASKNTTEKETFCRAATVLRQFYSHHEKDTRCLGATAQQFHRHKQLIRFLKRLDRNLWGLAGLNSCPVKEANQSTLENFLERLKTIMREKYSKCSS
Nature of the assay: cell-based or functional assay.

The target in assay [6] is T5, recombinant human IL-13 (human, UniProt P35225 35-146). The assay is described as follows: cell-based or functional assay.
The target of assay [7] is T6, recombinant cynomolgus monkey IL-4 (cynomolgus monkey, UniProt P79339 25-153).
T6 construct: also called Cyno IL-4
T6 sequence (looked up): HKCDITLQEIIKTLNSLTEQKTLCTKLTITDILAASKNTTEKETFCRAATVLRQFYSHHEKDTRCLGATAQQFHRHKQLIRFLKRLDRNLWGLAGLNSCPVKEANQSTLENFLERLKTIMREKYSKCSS
Nature of the assay: KinExA, fixed antigen format. On the technique in general: A kinetic exclusion assay measures how much of one partner remains free in solution.
Experimental: (§1) Samples were prepared in PBS containing 0.1% sodium azide and 1.0 mg/ml BSA. The fixed antigen assay method was used to determine binding affinity. […] Each trispecific and IL-4 cytokine were equilibrated for at least 72 hours at room temperature, then passed through a flow cell containing Polymethylmethacrylate (PMMA) beads coated with anti-hIL-4 Ab-0002 (Pfizer) that contains the same IL-4 binding domain as the trispecifics. […] Data analysis was performed with KinExA Pro software version 4.3.11 (Sapidyne). […] The ‘drift correction’ fitting option was used when responses varied between replicate injections. Two curves were obtained in independent experiments and analyzed using the ‘n-curve analysis’ tool to obtain global best fit values for the KD and active concentration of IL-4 cytokine. The software reports each best fit value along with a 95% confidence interval.

Assay [8] has as its target T4, recombinant human IL-4. The assay is described as follows: KinExA, fixed antigen format.
Experimental: as §1
Assay [9] concerns the target T6, recombinant cynomolgus monkey IL-4. Nature of the assay: cell-based or functional assay.
Assay [10] has as its target T4, recombinant human IL-4. Nature of the assay: cell-based or functional assay. The source holds these as a separate data set.
Assay [11] deals with T5, recombinant human IL-13. Nature of the assay: cell-based or functional assay. This is another data set of the same source.
The target in assay [12] is T5, recombinant human IL-13. The assay is described as follows: cell-based or functional assay. This is another data set of the same source.
For assay [13], the target named is T4, recombinant human IL-4. Nature of the assay: cell-based or functional assay. This is another data set of the same source.
Assay [14] concerns the target T3, recombinant human IL-33. Nature of the assay: cell-based or functional assay. This is another data set of the same source.
The target of assay [15] is T5, recombinant human IL-13. Nature of the assay: cell-based or functional assay. This is another data set of the same source.
Assay [16] deals with T7, recombinant cynomolgus monkey IL-13 (cynomolgus monkey, UniProt Q0PW92 19-132). The assay is described as follows: cell-based or functional assay.
Assay [17] has as its target T4, recombinant human IL-4. Nature of the assay: cell-based or functional assay. The source holds these as a separate data set.
The target in assay [18] is T5, recombinant human IL-13. The assay is described as follows: KinExA, fixed antigen format.
Experimental: (§2) Samples were prepared in PBS containing 0.1% sodium azide and 1.0 mg/ml BSA. The fixed antigen assay method was used to determine binding affinity. […] Data analysis was performed with KinExA Pro software version 4.3.11 (Sapidyne). […] The ‘drift correction’ fitting option was used when responses varied between replicate injections. Two curves were obtained in independent experiments and analyzed using the ‘n-curve analysis’ tool to obtain global best fit values for the KD and active concentration of IL-13 cytokine. The software reports each best fit value along with a 95% confidence interval.
For assay [19], the target named is T7, recombinant cynomolgus monkey IL-13. The assay is described as follows: KinExA, fixed antigen format.
Experimental: as §2
Assay [20] has as its target T8, human IL-33 (human, UniProt O95760 112-270, limits assumed).
T8 construct: Limits stated for the R&D protein; also called human IL-33 WT; reduced human IL-33
T8 sequence (looked up): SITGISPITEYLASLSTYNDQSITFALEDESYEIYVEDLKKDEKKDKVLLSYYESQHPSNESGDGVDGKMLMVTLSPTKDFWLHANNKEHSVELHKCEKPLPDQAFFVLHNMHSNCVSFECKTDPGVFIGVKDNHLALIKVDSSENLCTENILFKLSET
Nature of the assay: KinExA solution affinity, fixed antigen format.
Experimental: Samples were prepared in PBS containing 0.1% sodium azide and 1.0 mg/mL bovine serum albumin (BSA). […] The fixed active binding concentrations (ABC) of biotinylated human IL 33 used were 10 pM and 100 pM. Biotinylated human IL-33 wild-type (WT) was reduced with 3 mM Dithiothreitol (DTT) for 2 hours at room temperature before use. The samples were allowed to equilibrate for at least 72 hours at room temperature before passing them through a flow cell that contained the test article anti-IL-33 antibody being evaluated adsorbed to polymethylmethacrylate (PMMA) beads (Sapidyne). […] Data analysis was performed with KinExA Pro software version 4.3.11 (Sapidyne). […] The ‘drift correction’ fitting option was used when responses varied between replicate injections. Two curves were obtained in independent experiments and analyzed using the ‘n-curve analysis’ tool to obtain global best fit values for the KD and active concentration of IL-33 cytokine. The software reports each best fit value along with a 95% confidence interval.

Where two headings read alike, the source gives them in different places.

As a reminder, the Kd is the concentration at which binding is half-saturated.

T7 sequence (Q0PW92 entry or part of it limits assumed): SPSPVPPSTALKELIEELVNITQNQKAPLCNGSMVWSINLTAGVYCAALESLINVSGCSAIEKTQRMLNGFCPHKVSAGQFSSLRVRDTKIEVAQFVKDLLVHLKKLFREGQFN
T5 sequence (P35225 35-146 limits assumed): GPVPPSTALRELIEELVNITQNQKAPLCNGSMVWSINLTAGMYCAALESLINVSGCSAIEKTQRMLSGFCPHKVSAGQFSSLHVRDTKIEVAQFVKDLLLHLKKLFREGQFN

B1: IL4-1284 (antibody, human IgG1, kappa, V domains shown)
VH: QVTLRESGPALVKPTQTLTLTCTFSGFSLSTSGMGVSWIRQPPGKGLEWLAHIYWDDDKRYNPSLKSRLTISKDTSRNQVVLTMTNMDPVDTATYYCARRETVFYWYFDVWGRGTPVTVSS
VL: DIVMTQSPDSLAVSLGERATINCKASQSVDYDGDSYMNWYQQKPGQPPKLLIYAASNLESGVPDRFSGSGSGTDFTLTISSLQAEDVAVYYCQQSNEDPPRFGGGTKVEIKR
Consider B1, for which, in assay [1], the “pSTAT6 IC50 [pM]” value turned out to be 125 pM. In addition, in assay [2], the “pSTAT6: Fold bioactivity relative to IL4-1284” value worked out at 1 fold, the “pSTAT6: Fold bioactivity relative to IL4-1285” value is 0.6 fold and the “pSTAT6 IC50 [pM]” value turned out to be 125 pM.

B2: IL13433-1258 (other)
heavy: EVQLVESGGGLVQPGGSLRLSCAASGFTFSSYWMYWVRQAPGKGLEWVAAITPNAGEDYYPESVKGRFTISRDNAKNSLYLQMNSLRAEDTAVYYCARGQYYYTKYSLGYWGQGTLVTVSSASTKGPSVFPLAPSSKSTSGGTAALGCLVKDYFPEPVTVSWNSGALTSGVHTFPAVLQSSGLYSLSSVVTVPSSSLGTQTYICNVNHKPSNTKVDKKVEPKSCRKTHTCPPCPAPEAAGAPSVFLFPPKPKDTLMISRTPEVTCVVVDVSHEDPEVKFNWYVDGVEVHNAKTKPREEQYNSTYRVVSVLTVLHQDWLNGKEYKCKVSNKALPAPIEKTISKAKGQPREPQVYTLPPSREEMTKNQVSLTCLVKGFYPSDIAVEWESNGQPENNYKTTPPVLDSDGSFFLYSRLTVDKSRWQQGNVFSCSVLHEALHSHYTQKSLSLSPGK
chain 1: DIQMTQSPSSLSASVGDRVTITCKASESVDHFGWSLVHWYQQKPGKAPKLLIYRASNLESGVPSRFSGSGSGTDFTLTISSLQPEDFATYYCQQSNEDPWTFGGGTKVEIKRTVAAPSVFIFPPSDEQLKSGTASVVCLLNNFYPREAKVQWKVDNALQSGNSQESVTEQDSKDSTYSLSSTLTLSKADYEKHKVYACEVTHQGLSSPVTKSFNRGECGGGGSEVTLRESGPALVKPTQTLTLTCTFSGFSLSNFGEGLSWIRQPPGKGLEWLAHIYWDDDKRYNPSLKSRLTISKDTSRNQVVLTMTNMDPVDTATYYCARRETVFYWYFDVWGQGTTVTVSSASTKGPSVFPLAPSSKSTSGGTAALGCLVKDYFPEPVTVSWNSGALTSGVHTFPAVLQSSGLYSLSSVVTVPSSSLGTQTYICNVNHKPSNTKVDKKVEPKSCEKTHTCPPCPAPEAAGAPSVFLFPPKPKDTLMISRTPEVTCVVVDVSHEDPEVKFNWYVDGVEVHNAKTKPREEQYNSTYRVVSVLTVLHQDWLNGKEYKCKVSNKALPAPIEKTISKAKGQPREPQVYTLPPSREEMTKNQVSLTCEVKGFYPSDIAVEWESNGQPENNYKTTPPVLDSDGSFFLYSKLTVDKSRWQQGNVFSCSVLHEALHSHYTQKSLSLSPGK
light 1: DIQMTQSPSSLSASVGDRVTITCRASQPIHNHLDWYQQKPGKAPKLLIYFGKNLQEGVPSRFSGSGSGTDFTLTISSLQPEDFATYYCFQYKKGWSFGGGTKVEIKRTVAAPSVFIFPPSDEQLKSGTASVVCLLNNFYPREAKVQWKVDNALQSGNSQESVTEQDSKDSTYSLSSTLTLSKADYEKHKVYACEVTHQGLSSPVTKSFNRGEC
light 2: DIQMTQSPSSLSASVGDRVTITCRASQSVDEEGDSYMNWYQQKPGKAPKLLIYAASNLESGVPSRFSGSGSGTDFTLTISSLQPEDFATYYCQQSNKDPPTFGGGTKVEIKRTVAAPSVFIFPPSDEQLKSGTASVVCLLNNFYPREAKVQWKVDNALQSGNSQESVTEQDSKDSTYSLSSTLTLSKADYEKHKVYACEVTHQGLSSPVTKSFNRGEC
chain 2: EVQLVESGGGLVQPGGSLRLSCAASGFTFSSYAMSWVRQAPGKGLEWVASISSGDTTYYPDSVKGRFTISRDNAKNSLYLQMNSLRAEDTAVYYCARNEGYYFGLTLWGQGTLVTVSSASTKGPSVFPLAPSSKSTSGGTAALGCLVKDYFPEPVTVSWNSGALTSGVHTFPAVLQSSGLYSLSSVVTVPSSSLGTQTYICNVNHKPSNTKVDKKVEPKSC
notes: Trispecific Tri-Fab-Fc, dual cell, EE/RR, LS; Chains in order: SFab HC(3), DFab LC(1)-HC(2), SFab LC(3), DFab LC(2), modified Fd(1)
With B2, the “IC50 (mean), IFNg Whole Blood (IL-12 plus IL-33 mm2-Cys)” value in assay [3] was 0.0125 nM. Also, the “IC50 (mean), HEK-Blue IL-33 SEAP” value in [4] came out at 0.0134 nM. For the same molecule, the “IC50 (median), IL-4 induced CD23 expression on human monocytes” value in [5] and in [17] was 0.01 nM each time. Besides, the “IC50 (median), IL-13 induced CD23 expression on human monocytes” value in [6] and in [11] was 0.0117 nM throughout. Also, the Kd came out at 0.00296 nM in assay [7], 0.000477 nM in [8], 0.000612 nM in [18] and 0.000866 nM in [19]. Moreover, the “IC50 (median), CD23 expression, Human Whole Blood” value in assay [9] turned out to be 0.0321 nM; in assay [10], 0.0232 nM; in assay [15], 0.0161 nM; in assay [16], 0.0505 nM. For the same molecule, the “IC50 (median), CD23 expression, Peripheral Blood Monocytes” value in assay [9] came out at 0.0136 nM; in assay [10], 0.01 nM; in assay [15] it was 0.0117 nM; in assay [16], 0.0528 nM. Besides, the “IL-13 Induced CD23 Expression, potency of cytokine neutralization” value in [12] stood at 0.00935 nM. The “IL-4 Induced CD23 Expression, potency of cytokine neutralization” value in [13] was determined as 0.013 nM. The “IL-33 WT Activation of SEAP Reporter Cells, potency of cytokine neutralization” value in [14] was determined as 0.013 nM.

B3: IL33-0726 (antibody, human IgG1, kappa, V domains shown)
VH: EVQLVESGGGLVQPGGSLRLSCAASGFTFSSYWMYWVRQAPGKGLEWVAAITPNAGEDYYPESVKGRFTISRDNAKNSLYLQMNSLRAEDTAVYYCARGQYYYTKYSLGYWGQGTLVTVSS
VL: DIQMTQSPSSLSASVGDRVTITCRASQPIHNHLDWYQQKPGKAPKLLIYFGKNLQEGVPSRFSGSGSGTDFTLTISSLQPEDFATYYCFQYKKGWSFGGGTKVEIKR
notes: also called IL13433-0726; IL33-0726 IgG
As for B3, in [20], the “fold higher affinity relative to the IL33-0352 benchmark antibody” value was around 3 fold and the “fold higher affinity than IL33-0232 antibody” value was around 14 fold.

The values above are taken from patent US20240117030A1 (Pfizer, published 2024).
